Holding throughout (experiment): SPR
A general note: Surface plasmon resonance follows binding to a sensor surface in real time, without labels.

The target in assay [1] is T1, dAPN-Q746K ectodomain, hFc-tagged (dog (Canis lupus familiaris), UniProt P79143 33-975, Q746K).
T1 sequence: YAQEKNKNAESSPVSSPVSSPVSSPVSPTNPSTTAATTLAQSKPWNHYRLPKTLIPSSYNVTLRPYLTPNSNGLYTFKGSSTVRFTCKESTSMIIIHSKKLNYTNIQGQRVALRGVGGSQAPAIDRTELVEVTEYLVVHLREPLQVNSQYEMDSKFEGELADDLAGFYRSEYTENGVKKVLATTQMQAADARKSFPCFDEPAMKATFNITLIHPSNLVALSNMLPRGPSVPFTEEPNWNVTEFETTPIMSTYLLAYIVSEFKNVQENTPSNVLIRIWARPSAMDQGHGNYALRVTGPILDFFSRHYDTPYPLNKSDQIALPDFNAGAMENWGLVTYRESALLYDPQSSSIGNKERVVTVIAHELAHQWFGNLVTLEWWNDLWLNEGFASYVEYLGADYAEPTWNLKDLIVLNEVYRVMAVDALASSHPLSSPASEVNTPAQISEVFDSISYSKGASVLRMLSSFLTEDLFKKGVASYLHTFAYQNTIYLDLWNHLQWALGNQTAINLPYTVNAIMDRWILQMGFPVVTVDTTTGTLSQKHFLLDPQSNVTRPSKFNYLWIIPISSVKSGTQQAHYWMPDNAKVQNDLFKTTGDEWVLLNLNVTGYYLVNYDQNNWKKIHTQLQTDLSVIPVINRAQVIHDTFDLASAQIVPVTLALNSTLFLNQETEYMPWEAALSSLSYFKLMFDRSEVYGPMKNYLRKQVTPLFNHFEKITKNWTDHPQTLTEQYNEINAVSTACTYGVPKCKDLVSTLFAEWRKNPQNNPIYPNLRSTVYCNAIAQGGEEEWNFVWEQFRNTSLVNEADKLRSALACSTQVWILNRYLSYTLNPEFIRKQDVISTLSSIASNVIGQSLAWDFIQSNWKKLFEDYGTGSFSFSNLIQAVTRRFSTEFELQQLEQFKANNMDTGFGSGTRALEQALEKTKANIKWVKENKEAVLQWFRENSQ

The target in assay [2] is T2, dAPN-Y797H ectodomain, hFc-tagged (dog (Canis lupus familiaris), UniProt P79143 33-975, Y797H).
T2 sequence: T1 sequence with K714Q, Y765H

Assay [3] deals with T3, dAPN-Q746K-D750E ectodomain, hFc-tagged (dog (Canis lupus familiaris), UniProt P79143 33-975, Q746K | D750E).
T3 sequence: T1 sequence with D718E

Changes are numbered by the printed parent chain.

Usually Kd stands for the free concentration of one partner at which half of the binding sites on the other are occupied at equilibrium, for simple one-to-one binding.

B1: TGEV RBD (receptor-binding domain of the transmissible gastroenteritis coronavirus spike protein) (domain or fragment)
chain: TANLNNGFYPVSSSEVGLVNKSVVLLPSFYTHTIVNITIDLGMKRSGYGQPIASTLSNITLPMQDNNTDVYCIRSDQFSVYVHSTCKSSLWDNIFKRNCTDVLDATAVIKTGTCPFSFDKLNNYLTFNKFCLSLSPVGANCKFDVAARTRTNEQVVRSLYVIYEEGDNIVGVPSD
Take B1: the results for the Kd in assay [1], in assay [2] and in assay [3] were 333 nM, 23.8 nM and 1540 nM, respectively.

These data come from paper PMC11741606 (2025).
